# In the supplement of paper PMC12042874:
# ± gives the uncertainty stated by the source.
# Assay: amyloid nucleation score (Sup35N fusion, yeast selection) (log enrichment); library NNK1; higher = more nucleation; inactive = no reads after selection
# Procedure, shortened: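 Three technical output replicates were used for random libraries. Psi-negative yeast expressing peptides of 20 random codons fused to Sup35N were induced with 100 μM copper sulfate for 24 hours and grown 7 days at 30°C on medium lacking adenine and uracil, and input and output plasmid inserts were Illumina-sequenced, excluding sequences with under 100 input reads. The nucleation score is the DiMSum log enrichment of output over input reads, centred on the mode score of non-aggregating sequences.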
row,Substance,amyloid nucleation score
1,KVPDALFVDRLLYQVISCIH,3.47 ± 0.084
2,KVVRAACCQKMFERVGVHGG,-0.842 ± 0.94
3,KVYYYKPLIRNPTSFLITIL,0.817 ± 0.47
4,KWRNLSS,0.631 ± 0.89
5,KWVWDLMMVDSGLRLSSHVL,0.026 ± 0.35
6,KYEMRITVGRGYFSGRMHAC,0.494 ± 0.78
7,KYKVVI,-0.289 ± 0.24
8,KYVIGVNAMEWWPTTTAI,0.166 ± 1.6
9,KYWGS,inactive
10,KYYMHLSSRDRRGAAWHLLF,-0.075 ± 0.29
11,LACCFIVSWFNGSGSLTSRS,7.497 ± 0.05
12,LACSVAA,-0.493 ± 0.34
13,LAGIVCEWWFGWVGDVQLAF,-0.604 ± 0.85
14,LALHSNNQLFF,0.839 ± 0.81
15,LATNFCDTMRYVNGFRIAWC,0.647 ± 0.66
16,LAVTFQGIGFSYSILHITTY,-0.164 ± 0.44
17,LAWVGVLW,-0.219 ± 1.1
18,LCANNFHHVDKTGFAICNIH,3.64 ± 0.051
19,LCDFLNAYEINGKFSCGGTR,0.084 ± 0.38
20,LCEHKSRLVEDAKGGET,-0.043 ± 0.47
21,LCFYDKYGPQYL,-0.59 ± 0.54
22,LCGDHLFWLDVGDAVGVFLA,0.176 ± 0.4

row,Substance,amyloid nucleation score
1,LCGTMWAG,0.62 ± 0.51
2,LCKFYPAFTGTTCTNLLSVW,0.321 ± 0.84
3,LCLFFGLHLWVWMRKACCY,-0.205 ± 0.31
4,LCLKF,0.77 ± 0.97
5,LCLLCNRYRWTN,7.041 ± 0.048
6,LCLRLCPLMVWSCVLERWVS,-1.78 ± 2.7
7,LCSDIG,-0.09 ± 0.4
8,LCSLTGLGYAMHVYVSLDVQ,0.086 ± 0.5
9,LCTLTVNYRSEHSYFYCINF,-0.319 ± 0.41
10,LCWTIWV,-1.61 ± 2.4
11,LDCYRLRCSLEAIECVISNE,-0.479 ± 0.21
12,LDEVHESSIRSGNY,3.12 ± 0.17
13,LDHGEFTKYFRLTRCVSTCC,-0.339 ± 0.97
14,LDMVANYLYSGSALILYCHL,-1.17 ± 2.1
15,LDSAYSGGKCYTWFNIRRFV,0.361 ± 0.86
16,LDSCPAL,0.47 ± 0.57
17,LDVYCH,inactive
18,LEFGSSSGAIVMRGEDPCQP,0.649 ± 0.52
19,LEFVYNH,1.44 ± 0.74
20,LEITTHTSGIILMKGTPLRR,3.14 ± 0.087
21,LELTIRVRNSIVI,inactive
22,LEMGDPCQYCLDLFAGYPSG,0.549 ± 0.55

row,Substance,amyloid nucleation score
1,LEPNCVLSYTDSFVNQFVTL,0.119 ± 0.3
2,LEWGQPHPCSGFRKCWYSDV,0.136 ± 0.58
3,LFADYILCTCAGCGTGAWEM,-0.092 ± 1.1
4,LFALNCDCM,7.448 ± 0.053
5,LFATYLAFKFY,-0.356 ± 1
6,LFDARDSRFSCRYVMRRVWV,0.195 ± 0.25
7,LFEGEIIMK,inactive
8,LFFGSTLMDATFGYGDSDCN,0.828 ± 0.62
9,LFGEFRNEINAI,0.031 ± 0.31
10,LFHQLRITSVLSYDDKCEAR,0.41 ± 0.2
11,LFIRGMIDDKVSITNYVC,-0.546 ± 0.31
12,LFLCGGDCYGKFLLCPCLVS,0.144 ± 0.9
13,LFNLFSRL,0.335 ± 0.51
14,LFSNPFRQAWH,-0.445 ± 0.71
15,LFSPMSILRFLFMYIAKVMD,0.213 ± 0.58
16,LFTKNSIGGVFPCPPETARY,-1.18 ± 2.4
17,LFTNMYSRVLTFLM,-0.441 ± 1.7
18,LFTSVYL,-0.173 ± 0.53
19,LFYTCRVDQGPVWGLLTKRR,0.344 ± 0.77
20,LGFMTCSP,inactive
21,LGGSDYVYANSFTTIGSSGV,-0.202 ± 0.21
22,LGHGGVR,0.566 ± 0.28

row,Substance,amyloid nucleation score
1,LGLFCESYDEADCRTEDSAC,0.254 ± 0.3
2,LGMCFENSPVNLFWAIDSQM,1.95 ± 0.37
3,LGNNPTKHC,-0.171 ± 0.51
4,LGRSGKMTT,-0.032 ± 0.54
5,LGSAAISLIVLFLG,2.64 ± 0.27
6,LGSMSTWVDRLRVANQVVVC,0.785 ± 0.77
7,LGTMSVYRRPRSMMGCRDQG,0.173 ± 0.26
8,LGVKFVQDGTINKGHLKR,-0.543 ± 0.63
9,LHETFVCR,-0.267 ± 0.58
10,LHGPN,0.705 ± 0.71
11,LHLAAMM,-0.344 ± 1.1
12,LHLNSCSQNITSLHYLPFWA,-0.113 ± 0.39
13,LHRALYLDRQLISWGTVSQM,-0.332 ± 0.42
14,LICVGCSCYSLKLSYNSSGL,5.79 ± 0.058
15,LIEVWYVLIQGECDPWVTHG,1.07 ± 0.97
16,LIIILVQQSEGACRILARD,0.028 ± 0.34
17,LILKYAVGRRQARVVKRNSR,-0.575 ± 1.4
18,LIRHVLNLVL,-0.139 ± 0.77
19,LISGKYLYSPTALLDHIL,0.484 ± 0.68
20,LITWCIVVAWCIIVTREA,2.84 ± 0.12
21,LIWAVLCVKHTKEYVWLAHL,-0.469 ± 0.54
22,LIYAREDGEALWEAIRPTEK,-0.047 ± 0.48
